The results in this text go back to PMC9158529, “AfCHIL, a Type IV Chalcone Isomerase, Enhances the Biosynthesis of Naringenin in Metabolic Engineering” (Frontiers in Plant Science, 2022).

In one assay the test system is T1, AfCHS/AfCHIL.
T1 construct: gene CHS; complete ORFs in pET-15b, His6-tagged, E. coli BL21 (DE3), combined in the assay; legend calls it AfCHIL/AfCHS1; with Chalcone isomerase-like protein (type IV chalcone isomerase)
The experiment in a line: HPLC at […] nm, Michaelis-Menten fit. The settings on record: AfCHIL present; 200 uM malonyl-CoA, 20-200 uM p-coumaroyl-CoA. Format: biochemical, Allium fistulosum.

The test system of another assay is T2, AfCHS.
T2 construct: gene CHS; complete ORF in pET-15b, His6-tagged, E. coli BL21 (DE3), His-tag purified
As to the kind of experiment: HPLC at […] nm, Michaelis-Menten fit. The settings on record: 200 uM malonyl-CoA, 20-200 uM p-coumaroyl-CoA, HEPES-KOH pH 7.0, 2 mM DTT, 35 °C, 30 min. The class given is biochemical, Allium fistulosum.

Assay [1] has as its target AfCHS, chalcone synthase of Allium fistulosum (yeast two-hybrid fusion) (Allium fistulosum).
For assay [2] the target is unchanged. The source holds these as a separate data set.

With `CC(C)(COP(=O)(O)OP(=O)(O)OC[C@H]1O[C@@H](n2cnc3c(N)ncnc32)[C@H](O)[C@@H]1OP(=O)(O)O)[C@@H](O)C(=O)NCCC(=O)NCCSC(=O)/C=C/c1ccc(O)cc1` [p-coumaroyl-CoA], the Km (in general, the concentration of substrate that gives half-maximal velocity) is 53.9 ± 10 µM in the assay with AfCHS/AfCHIL and 55.1 ± 12.5 µM in the assay on AfCHS.
Consider “AfCHIL, type IV chalcone isomerase of Allium fistulosum (yeast two-hybrid fusion) (natural protein)”, for which the Kcat of purified His6-AfCHS (p-coumaroyl-CoA and malonyl-CoA as substrates) in the presence of purified His6-AfCHIL, against AfCHS alone in assay [1] worked out at 2.7 times. In assay [2], this compound displayed a by-product CTAL produced by purified AfCHS in vitro with AfCHIL present, against AfCHS alone of 30 % decrease and a naringenin produced by purified AfCHS in vitro with AfCHIL present, against AfCHS alone of 2.2 times.
